The target of one assay is T1, human plasma-derived vWF (human, UniProt P04275 764-2813).
T1 construct: mature; also called plasma-derived purified vWF; von Willebrand factor
Briefly: ELISA, vWF coated 50 nM, VEGF-A 1 µg/mL. The protocol:
(§1) ELISA was performed as previously reported1. […] After blocking with 2% BSA solution containing PBS-T, 1 μg/mL of recombinant human VEGF-A121 (PeproTech), recombinant human VEGF-A145 (R & D Systems), or recombinant human VEGF-A165 (PeproTech) was added. Bound VEGF-A was detected with 1 μg/mL of mouse anti-human VEGF-A antibody (clone: 26503, R & D systems). After 60 min of incubation, horseradish peroxidase (HRP) conjugated goat anti-mouse antibody (1:2000 dilution, Dako) was added and incubated for another 60 min. Color development and the absorbance measurement were done as described above.
On the technique in general: ELISA stands for enzyme-linked immunosorbent assay.

Assay [1] concerns the target T2, recombinant human vWF A2 domain (human, UniProt P04275 1498-1665).
T2 construct: domain: A2
Briefly: ELISA, domain coated 50 nM. The protocol:
as §1

Assay [2] deals with T3, recombinant human vWF A3 domain (human, UniProt P04275 1683-1874).
T3 construct: domain: A3
Briefly: ELISA, domain coated 50 nM. The protocol:
as §1

Assay [3] concerns the target T4, recombinant human vWF A1 domain (human, UniProt P04275 1261-1468, limits assumed).
T4 construct: domain: A1; also called vWF A1 recombinant protein; recombinant A1 domain
Briefly: ELISA, domain coated 50 nM, VEGF-A 1 µg/mL. The protocol:
as §1

For assay [4], the target named is T5, recombinant human syndecan-1 (human, UniProt P18827 23-254, limits assumed).
T5 construct: Histidine tag of unstated position and length
T5 sequence (looked up): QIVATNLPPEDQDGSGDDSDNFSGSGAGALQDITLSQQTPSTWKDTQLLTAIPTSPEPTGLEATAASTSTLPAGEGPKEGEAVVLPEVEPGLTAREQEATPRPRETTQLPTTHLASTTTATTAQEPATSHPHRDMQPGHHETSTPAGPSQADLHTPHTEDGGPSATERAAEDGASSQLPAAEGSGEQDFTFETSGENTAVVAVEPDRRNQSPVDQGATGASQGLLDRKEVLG
Briefly: ELISA, peptide coated, anti-His detection. The protocol: (§2) ELISA tests were performed as described above. In brief, ELISA plates were coated with 1 μg/mL laminin peptide (sequences are described in Table 1, chemically synthesized by Genscript) in PBS for 2 hrs at 37° C. 1 μg/mL of BSA served as non-binding protein control. After blocking with 2% BSA PBS-T solution, 1 μg/mL of the recombinant human syndecan-1, syndecan-2, syndecan-3, syndecan-4 (all syndecan proteins are histidine-tagged; SinoBiological) were added. Bound GF was detected with anti-histidine tag antibody (1:1000 dilution, BioLegend).

Assay [5] has as its target T6, recombinant human syndecan-2 (human, UniProt P34741 19-144, limits assumed).
T6 construct: Histidine tag of unstated position and length
Briefly: ELISA, peptide coated, anti-His detection. The protocol:
as §2

Assay [6] concerns the target T7, recombinant human syndecan-3 (human, UniProt O75056 48-387, limits assumed).
T7 construct: Histidine tag of unstated position and length
Briefly: ELISA, peptide coated, anti-His detection. The protocol: as §2

The target in assay [7] is T8, recombinant human syndecan-4 (human, UniProt P31431 19-145, limits assumed).
T8 construct: Histidine tag of unstated position and length
T8 sequence (looked up): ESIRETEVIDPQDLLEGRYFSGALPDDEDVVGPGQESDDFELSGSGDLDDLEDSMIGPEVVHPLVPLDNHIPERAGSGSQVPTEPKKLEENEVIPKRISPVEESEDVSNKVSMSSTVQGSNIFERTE
Briefly: ELISA, peptide coated, anti-His detection. The protocol:
as §2

Assay [8] has as its target T9, vascular endothelial growth factor (VEGF)-A121 (human, UniProt P15692-9 27-147).
T9 construct: mature; Purchased in mature form, not glycosylated
T9 sequence (looked up): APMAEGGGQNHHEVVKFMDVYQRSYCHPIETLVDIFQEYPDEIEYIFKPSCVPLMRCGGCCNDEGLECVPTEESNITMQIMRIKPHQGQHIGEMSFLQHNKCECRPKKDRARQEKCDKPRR
Briefly: ELISA, peptide coated. In a few lines: (§3)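 Wells coated with 10 μg/mL laminin α3/α4/α5 LG-domain peptides, BSA-coated wells as non-binding control, blocked with 2% BSA PBS-T. Recombinant human GFs added at 1 μg/mL; bound GF detected with GF-specific biotinylated antibody plus streptavidin-HRP (n=4, mean±SEM).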

Assay [9] concerns the target T10, placental growth factor (PlGF)-1 (human, UniProt P49763-2 19-149).
T10 construct: mature; Purchased in mature form
T10 sequence (looked up): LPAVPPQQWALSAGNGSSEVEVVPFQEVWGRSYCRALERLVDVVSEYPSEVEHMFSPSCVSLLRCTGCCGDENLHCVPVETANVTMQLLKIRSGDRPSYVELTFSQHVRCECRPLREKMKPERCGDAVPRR
Briefly: ELISA, peptide coated. In a few lines:
as §3

Assay [10] concerns the target T11, vascular endothelial growth factor (VEGF)-A165 (human, UniProt P15692-4 27-191).
T11 construct: mature; Purchased in mature form, not glycosylated
Briefly: ELISA, peptide coated, GF 1 µg/mL. In a few lines: as §3

Assay [11] has as its target T12, placental growth factor (PlGF)-2 (human, UniProt P49763-3 19-170).
T12 construct: mature; Purchased in mature form
T12 sequence (looked up): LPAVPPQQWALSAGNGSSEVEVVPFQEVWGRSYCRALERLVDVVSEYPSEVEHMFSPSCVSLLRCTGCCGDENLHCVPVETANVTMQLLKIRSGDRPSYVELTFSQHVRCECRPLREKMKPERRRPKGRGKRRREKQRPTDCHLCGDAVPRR
Briefly: ELISA, peptide coated, GF 1 µg/mL. An outline of the steps:
as §3

Assay [12] has as its target T13, fibroblast growth factor (FGF)-2 (human, UniProt P09038 143-288).
T13 construct: mature; Purchased in mature form
Briefly: ELISA, peptide coated, GF 1 µg/mL. An outline of the steps: as §3

Assay [13] deals with T14, platelet-derived growth factor (PDGF)-BB (human, UniProt P01127 82-190).
T14 construct: mature; Purchased in mature form
T14 sequence (P01127 82-190): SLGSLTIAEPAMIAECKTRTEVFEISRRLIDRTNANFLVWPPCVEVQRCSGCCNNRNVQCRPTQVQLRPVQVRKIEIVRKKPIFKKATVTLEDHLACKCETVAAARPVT
Briefly: ELISA, peptide coated, GF 1 µg/mL. In a few lines:
as §3

T13 sequence (P09038 143-288): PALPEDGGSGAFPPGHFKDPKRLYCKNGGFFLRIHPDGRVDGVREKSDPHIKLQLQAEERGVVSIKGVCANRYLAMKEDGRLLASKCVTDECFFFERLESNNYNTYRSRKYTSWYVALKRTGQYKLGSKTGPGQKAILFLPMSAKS
T6 sequence (P34741 19-144 limits assumed): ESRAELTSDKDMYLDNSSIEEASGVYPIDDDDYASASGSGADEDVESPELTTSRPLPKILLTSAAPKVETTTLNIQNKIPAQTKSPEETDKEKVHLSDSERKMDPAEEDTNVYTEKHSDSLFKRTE
T7 sequence (O75056 48-387 limits assumed): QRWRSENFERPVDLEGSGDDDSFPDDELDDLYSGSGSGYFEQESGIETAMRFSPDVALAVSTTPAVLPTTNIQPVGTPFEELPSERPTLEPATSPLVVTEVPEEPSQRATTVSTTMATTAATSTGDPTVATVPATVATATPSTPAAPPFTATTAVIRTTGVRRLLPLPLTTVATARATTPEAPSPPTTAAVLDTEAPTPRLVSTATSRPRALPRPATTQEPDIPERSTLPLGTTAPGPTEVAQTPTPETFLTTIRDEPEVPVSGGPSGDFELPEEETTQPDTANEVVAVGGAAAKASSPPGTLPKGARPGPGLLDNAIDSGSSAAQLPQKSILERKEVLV

B1: recombinant human VEGF-A145 (ligand, UniProt P15692-6 27-171, looked up)
chain: APMAEGGGQNHHEVVKFMDVYQRSYCHPIETLVDIFQEYPDEIEYIFKPSCVPLMRCGGCCNDEGLECVPTEESNITMQIMRIKPHQGQHIGEMSFLQHNKCECRPKKDRARQEKKSVRGKGKGQKRKRKKSRYKSWSVCDKPRR
For the molecule B1, the binding result with human plasma-derived vWF is given as “binds”; in assay [1], “no binding (tested: 1 µg/mL)”; in assay [2], “no binding (tested: 1 µg/mL)”; in assay [3], “binds”.
With TLPDVGLELEVR (Chemically synthesized (Genscript)) [laminin α5 3539-3550 peptide (LG5)], the binding result in assay [4], in assay [5], in [6], in assay [7], in [8] and in [9] was “no binding (tested: 1 µg/mL)” in each case. For the same molecule, the binding result in assay [10], in assay [11], in assay [12] and in assay [13] was “binds” throughout.

For the origin of these results see patent US20240092867A1 (UNIVERSITY OF CHICAGO, published 2024).
